Results reported in patent US20230124851A1 (INHIBRX LNC, published 2023).
Blank lines part the entries; values can stand above or below the binder they belong to.

Legend:
[1] = molecular target: T1, CD3 on the surface of human T cells (human, UniProt P07766 23-207); assay: flow cytometry on primary human T cells, anti-human IgG APC secondary
T1 construct: whole, on cells; Part of the CD3/TCR complex on cells; also called CD3 epsilon
Experimental: (§1) Binding of exemplary B7H3-targeting constrained CD3 engaging constructs set forth in Table E3 to CD3 on the surface of primary T cells or B7H3-expressing cells (A375) was assessed by flow cytometry. The T cells were primary T-cells that were negatively enriched from PBMCs isolated from healthy human donor peripheral blood leukopaks. Bound construct was detected with fluorophore-conjugated secondary antibodies specific for the human Fc (anti-human IgG APC secondary antibody) and binding was measured by flow cytometry. Cells incubated with secondary antibody only served as negative controls. Binding was compared to Dual-affinity Re-targeting Antibody (DART)-monomeric Fc format targeting B7H3 and CD3 (DART-Fc B7H3xCD3; see e.g. WO2017030926A1).

[2] = molecular target: T2, human B7H3 (CD276) on the cell surface (human, UniProt Q5ZPR3 29-534); assay: flow cytometry on A375 cells (B7H3+), anti-human IgG APC secondary
T2 construct: B7H3 on A375 and other B7H3-positive or transfected cells
T2 sequence: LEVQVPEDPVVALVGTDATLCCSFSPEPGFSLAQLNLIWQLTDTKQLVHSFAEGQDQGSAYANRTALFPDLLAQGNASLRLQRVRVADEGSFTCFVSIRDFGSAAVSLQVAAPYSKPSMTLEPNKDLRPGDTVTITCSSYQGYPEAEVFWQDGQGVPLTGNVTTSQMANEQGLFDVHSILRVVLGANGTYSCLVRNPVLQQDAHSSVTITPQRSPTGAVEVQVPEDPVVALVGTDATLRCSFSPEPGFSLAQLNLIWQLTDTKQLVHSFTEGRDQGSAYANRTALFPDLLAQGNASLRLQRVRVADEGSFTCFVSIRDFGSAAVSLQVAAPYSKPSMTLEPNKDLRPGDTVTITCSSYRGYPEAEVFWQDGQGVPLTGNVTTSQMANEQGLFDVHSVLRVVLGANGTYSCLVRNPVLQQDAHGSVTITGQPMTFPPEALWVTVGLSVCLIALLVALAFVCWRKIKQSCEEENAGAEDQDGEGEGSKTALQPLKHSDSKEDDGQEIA
Experimental: as §1

T1 sequence (P07766 23-207): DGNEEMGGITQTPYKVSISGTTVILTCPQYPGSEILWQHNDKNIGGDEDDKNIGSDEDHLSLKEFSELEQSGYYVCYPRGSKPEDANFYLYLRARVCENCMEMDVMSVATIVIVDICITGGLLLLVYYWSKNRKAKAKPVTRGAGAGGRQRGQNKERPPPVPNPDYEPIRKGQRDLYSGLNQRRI

- binding result [1]: no binding (tested: 200 nM)
B1: cx4908 (bispecific antibody)
chain 1: EVQLVESGGGEVQPGGSLRLSCAASGSTFSSYHMSWFRQAPGKQREPVATSHHGGTTNYAGSVKGRFTISRDNAKNTVYLQMNTLRAEDTAVYYCKADHGYQGRGYWGQGTLVTVKPDKTHTCPPCPAPGGPSVFLFPPKPKDTLMISRTPEVTCVVVDVSHEDPEVKFNWYVDGVEVHNAKTKPREEQYNSTYRVVSVLTVLHQDWLNGKEYKCKVSNKALPAPIEKTISKAKGQPREPQVYTLPPCRDELTKNQVSLWCLVKGFYPSDIAVEWESNGQPENNYKTTPPVLDSDGSFFLYSKLTVDKSRWQQGNVFSCSVMHEALHNHYTQKSLSLSPTGGSGGGGIEPDIGGSGGSEVQLVESGGGLVQPGGSLRLSCAASGFTFNTYAMNWVRQAPGKCLEWVARIRSKYNNYATYYADSVKGRFTISRDDAKNTLYLQMSSLRAEDTAVYYCVRHGNFGNSYVSWFAYWGQGTLVTVKPEVQLVESGGGEVQPGGSLRLSCAASGFSFGSNVMMWVRQAPGKGPEWVSTIYSSGTGTFYAESVKGRFTISRDNAKNTLYLQMSSLRAEDTAVYYCATSGPVRGWGPWSQGTLVTVKP
chain 2: DKTHTCPPCPAPGGPSVFLFPPKPKDTLMISRTPEVTCVVVDVSHEDPEVKFNWYVDGVEVHNAKTKPREEQYNSTYRVVSVLTVLHQDWLNGKEYKCKVSNKALPAPIEKTISKAKGQPREPQVCTLPPSRDELTKNQVSLSCAVKGFYPSDIAVEWESNGQPENNYKTTPPVLDSDGSFFLVSKLTVDKSRWQQGNVFSCSVMHEALHNRYTQKSLSLSPTGGSGGGGIEPDIGGSGGSQAVVTQEPSLTVSPGGTVTLTCGSSTGAVTTSNYANWVQQKPGQAFRGLIGGTNKRAPGVPARFSGSLLGGKAALTISGAQPEDEADYYCALWYSNHWVFGCGTKLTVLEVQLLESGGGEVQPGGSLRLSCAASGFSFSINAMGWYRQAPGKRREFVAAIESGRNTVYAESVKGRFTISRDNAKNTVYLQMSSLRAEDTAVYYCGLLKGNRVVSPSVAYWGQGTLVTVKP
notes: chain 2 ends in the 4-1BB sdAb RH3v5-1

- binding result [1]: no binding (tested: 200 nM)
B2: cx2846 (bispecific antibody, not shown: a dimerising Fc or GST)
chain 1: EVQLVESGGGEVQPGGSLRLSCAASGSTFSSYHMSWFRQAPGKQREPVATSHHGGTTNYAGSVKGRFTISRDNAKNTVYLQMNTLRAEDTAVYYCKADHGYQGRGYWGQGTLVTVKPGGSGGGGIEPDIGGSGGSEVQLVESGGGLVQPGGSLRLSCAASGFTFNTYAMNWVRQAPGKCLEWVARIRSKYNNYATYYADSVKGRFTISRDDAKNTLYLQMSSLRAEDTAVYYCVRHGNFGNSYVSWFAYWGQGTLVTVKPEVQLVESGGGEVQPGGSLRLSCAPSERTFSTYTMGWFRQAPGKEREFVAVVNWGGGSKYYAESVKGRFTISRDNAKNTVYLQMSSLRAEDTAVYYCAAGGAYSGPYYDTRQYTYWGQGTLVTVKP
chain 2: GGSGGGGIEPDIGGSGGSQAVVTQEPSLTVSPGGTVTLTCGSSTGAVTTSNYANWVQQKPGQAFRGLIGGTNKRAPGVPARFSGSLLGGKAALTISGAQPEDEADYYCALWYSNHWVFGCGTKLTVL

- binding result [1]: no binding (tested: 200 nM)
B3: cx3960 (bispecific antibody, not shown: a dimerising Fc or GST)
chain 1: EVQLVESGGGEVQPGGSLRLSCAASGSTFSSYHMSWFRQAPGKQREPVATSHHGGTTNYAGSVKGRFTISRDNAKNTVYLQMNTLRAEDTAVYYCKADHGYQGRGYWGQGTLVTVKPGGSGGGGIEPDIGGSGGSEVQLVESGGGLVQPGGSLRLSCAASGFTFNTYAMNWVRQAPGKCLEWVARIRSKYNNYATYYADSVKGRFTISRDDAKNTLYLQMSSLRAEDTAVYYCVRHGNFGNSYVSWFAYWGQGTLVTVKPQLQLQESGGGLVQAGDSLRLSCAASGFSFGSNVMMWVRQAPGKGPEWVSTIYSSGTGTFYADSVKGRFTISRNNAKNTLYLQMNSLKPDDTAVYYCATSGPVRGWGPRSQGTLVTVKP
chain 2: B2 chain 2

- binding result [2]: binds
B4: DART-Fc B7H3xCD3 (bispecific antibody)
chain 1: DIQLTQSPSFLSASVGDRVTITCKASQNVDTNVAWYQQKPGKAPKALIYSASYRYSGVPSRFSGSGSGTDFTLTISSLQPEDFATYYCQQYNNYPFTFGQGTKLEIKGGGSGGGGEVQLVESGGGLVQPGGSLRLSCAASGFTFSTYAMNWVRQAPGKGLEWVGRIRSKYNNYATYYADSVKDRFTISRDDSKNSLYLQMNSLKTEDTAVYYCVRHGNFGNSYVSWFAYWGQGTLVTVSSGGCGGGEVAALEKEVAALEKEVAALEKEVAALEKGGGDKTHTCPPCPAPEAAGGPSVFLFPPKPKDTLMISRTPEVTCVVVDVSHEDPEVKFNWYVDGVEVHNAKTKPREEQYNSTYRVVSVLTVLHQDWLNGKEYKCKVSNKALPAPIEKTISKAKGQPREPQVYTLPPSREEMTKNQVSLWCLVKGFYPSDIAVEWESNGQPENNYKTTPPVLDSDGSFFLYSKLTVDKSRWQQGNVFSCSVMHEALHNHYTQKSLSLSPGK
chain 2: QAVVTQEPSLTVSPGGTVTLTCRSSTGAVTTSNYANWVQQKPGQAPRGLIGGTNKRAPWTPARFSGSLLGGKAALTITGAQAEDEADYYCALWYSNLWVFGGGTKLTVLGGGGSGGGGEVQLVESGGGLVQPGGSLRLSCAASGFTFSSFGMHWVRQAPGKGLEWVAYISSDSSAIYYADTVKGRFTISRDNAKNSLYLQMNSLRDEDTAVYYCGRGRENIYYGSRLDYWGQGTTVTVSSGGCGGGKVAALKEKVAALKEKVAALKEKVAALKE
chain 3: not shown
notes: Comparator, an analog of the format of WO2017030926A1; three polypeptide chains; also called B7H3xCD3 DART-Fc
